The text below walks through data of the supplement of paper PMC10567573.

Sequences and labels used below:
B1: TPD52L1 (parent)
chain: ISKKFGDMSYSIRHSISMPAMRNS
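Further: lentivirally expressed fusions sorted by FACS into six bins by GFP to DsRed ratio, PSI derived from sequencing read proportions per bin multiplied by bin number.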

This data set covers variants of B1. Description: protein stability index of a GFP-peptide fusion (GPS, HEK-293T) (PSI 1-6); higher = more stable. The note with it: c terminus: a fixed tail appended.
Take ISKLFGDMSYSIRHSISMPAMRNS [K4L]: the protein stability index was 1.52.
On to ISKSFGDMSYSIRHSISMPAMRNS [K4S], for which the protein stability index was found to be 2.71.
Then ISKRFGDMSYSIRHSISMPAMRNS [K4R], with 2.65.
In the case of ISKNFGDMSYSIRHSISMPAMRNS [K4N] it was 2.13.
Then ISKYFGDMSYSIRHSISMPAMRNS [K4Y], with 2.71.
Take ISKGFGDMSYSIRHSISMPAMRNS [K4G]: the protein stability index is 2.
Take ISKCFGDMSYSIRHSISMPAMRNS [K4C]: the protein stability index was 2.36.
Regarding ISKPFGDMSYSIRHSISMPAMRNS [K4P], the protein stability index came out at 2.48.
For the variant ISKWFGDMSYSIRHSISMPAMRNS [K4W], the protein stability index stood at 1.76.
As for ISKDFGDMSYSIRHSISMPAMRNS [K4D], the protein stability index was determined as 2.47.
In the case of ISKTFGDMSYSIRHSISMPAMRNS [K4T] it was 2.48; in that of ISKMFGDMSYSIRHSISMPAMRNS [K4M], 2.1.
Consider ISKHFGDMSYSIRHSISMPAMRNS [K4H], for which the protein stability index came to 2.57.
On to ISKFFGDMSYSIRHSISMPAMRNS [K4F], for which the protein stability index is 1.58.
Take ISKIFGDMSYSIRHSISMPAMRNS [K4I]: the protein stability index stood at 1.98.
As to ISKVFGDMSYSIRHSISMPAMRNS [K4V], the protein stability index came to 2.01.
As for ISKQFGDMSYSIRHSISMPAMRNS [K4Q], the protein stability index is 2.09.
As to ISKEFGDMSYSIRHSISMPAMRNS [K4E], the protein stability index stood at 2.33.
ISKAFGDMSYSIRHSISMPAMRNS [K4A]: the protein stability index was found to be 2.35.
As for ISKKFGDMSASIRHSISMPAMRNS [Y10A], the protein stability index amounted to 2.91.
With ISKKFGDMSCSIRHSISMPAMRNS [Y10C], the protein stability index came out at 2.17.
On to ISKKFGPMSYSIRHSISMPAMRNS [D7P], for which the protein stability index was 2.14.
Take ISKKFGVMSYSIRHSISMPAMRNS [D7V]: the protein stability index was 1.82.
In the case of ISKKFGTMSYSIRHSISMPAMRNS [D7T] it was 1.54; in that of ISKKFGEMSYSIRHSISMPAMRNS [D7E], 2.22.
ISKKFGNMSYSIRHSISMPAMRNS [D7N]: the protein stability index worked out at 1.67.
For the variant ISKKFGFMSYSIRHSISMPAMRNS [D7F], the protein stability index worked out at 1.7.
Regarding ISKKFGAMSYSIRHSISMPAMRNS [D7A], the protein stability index worked out at 2.15.
For the variant ISKKFGQMSYSIRHSISMPAMRNS [D7Q], the protein stability index is 2.04.
As for ISKKFGCMSYSIRHSISMPAMRNS [D7C], the protein stability index came to 1.69.
With ISKKFGIMSYSIRHSISMPAMRNS [D7I], the protein stability index amounted to 3.23.
With ISKKFGSMSYSIRHSISMPAMRNS [D7S], the protein stability index stood at 2.34.
In the case of ISKKFGRMSYSIRHSISMPAMRNS [D7R] it was 2.21; in that of ISKKFGKMSYSIRHSISMPAMRNS [D7K], 2.58; in that of ISKKFGWMSYSIRHSISMPAMRNS [D7W], 1.9.
Take ISKKFGLMSYSIRHSISMPAMRNS [D7L]: the protein stability index is 1.78.
ISKKFGYMSYSIRHSISMPAMRNS [D7Y]: the protein stability index is 2.31.
In the case of ISKKFGGMSYSIRHSISMPAMRNS [D7G] it was 1.68.
For the variant ISKKFGHMSYSIRHSISMPAMRNS [D7H], the protein stability index is 1.77.
Take ISKKFGMMSYSIRHSISMPAMRNS [D7M]: the protein stability index was determined as 1.51.
ISKKFIDMSYSIRHSISMPAMRNS [G6I]: the protein stability index was determined as 1.6.
For the variant ISKKFLDMSYSIRHSISMPAMRNS [G6L], the protein stability index is 1.45.
Take ISKKFNDMSYSIRHSISMPAMRNS [G6N]: the protein stability index is 2.15.
For ISKKFKDMSYSIRHSISMPAMRNS [G6K], the protein stability index came out at 1.74.
Regarding ISKKFRDMSYSIRHSISMPAMRNS [G6R], the protein stability index was 2.35.
In the case of ISKKFHDMSYSIRHSISMPAMRNS [G6H], the protein stability index turned out to be 1.88.
Consider ISKKFEDMSYSIRHSISMPAMRNS [G6E], for which the protein stability index amounted to 2.31.
In the case of ISKKFWDMSYSIRHSISMPAMRNS [G6W] it was 2.38; in that of ISKKFYDMSYSIRHSISMPAMRNS [G6Y], 1.86.
Consider ISKKFCDMSYSIRHSISMPAMRNS [G6C], for which the protein stability index stood at 1.98.
As for ISKKFQDMSYSIRHSISMPAMRNS [G6Q], the protein stability index is 2.19.
On to ISKKFFDMSYSIRHSISMPAMRNS [G6F], for which the protein stability index amounted to 1.97.
On to ISKKFADMSYSIRHSISMPAMRNS [G6A], for which the protein stability index was determined as 1.65.
Regarding ISKKFTDMSYSIRHSISMPAMRNS [G6T], the protein stability index came out at 2.62.
Regarding ISKKFDDMSYSIRHSISMPAMRNS [G6D], the protein stability index was 2.28.
Regarding ISKKFVDMSYSIRHSISMPAMRNS [G6V], the protein stability index was 2.15.
Regarding ISKKFPDMSYSIRHSISMPAMRNS [G6P], the protein stability index came out at 2.75.
With ISKKFSDMSYSIRHSISMPAMRNS [G6S], the protein stability index came to 2.24.
Take ISKKFMDMSYSIRHSISMPAMRNS [G6M]: the protein stability index worked out at 2.62.
Regarding ISAKFGDMSYSIRHSISMPAMRNS [K3A], the protein stability index was 1.57.
For the variant ISHKFGDMSYSIRHSISMPAMRNS [K3H], the protein stability index was found to be 2.37.
Regarding ISQKFGDMSYSIRHSISMPAMRNS [K3Q], the protein stability index turned out to be 2.25.
As to ISTKFGDMSYSIRHSISMPAMRNS [K3T], the protein stability index was 2.19.
Consider ISVKFGDMSYSIRHSISMPAMRNS [K3V], for which the protein stability index turned out to be 4.4.
As to ISWKFGDMSYSIRHSISMPAMRNS [K3W], the protein stability index is 3.69.
Then ISDKFGDMSYSIRHSISMPAMRNS [K3D], with 2.34.
ISIKFGDMSYSIRHSISMPAMRNS [K3I]: the protein stability index is 3.53.
Regarding ISPKFGDMSYSIRHSISMPAMRNS [K3P], the protein stability index came out at 2.63.
For ISYKFGDMSYSIRHSISMPAMRNS [K3Y], the protein stability index was found to be 2.8.
For the variant ISEKFGDMSYSIRHSISMPAMRNS [K3E], the protein stability index was 2.62.
As to ISNKFGDMSYSIRHSISMPAMRNS [K3N], the protein stability index came to 2.5.
Then ISFKFGDMSYSIRHSISMPAMRNS [K3F], with 4.67; and ISLKFGDMSYSIRHSISMPAMRNS [K3L], with 2.83.
For the variant ISCKFGDMSYSIRHSISMPAMRNS [K3C], the protein stability index stood at 2.69.
For the variant ISRKFGDMSYSIRHSISMPAMRNS [K3R], the protein stability index is 2.16.
Then ISMKFGDMSYSIRHSISMPAMRNS [K3M], with 2.67; and ISGKFGDMSYSIRHSISMPAMRNS [K3G], with 2.25; and ISSKFGDMSYSIRHSISMPAMRNS [K3S], with 2.25.
As to ISKKFGDTSYSIRHSISMPAMRNS [M8T], the protein stability index was 2.33.
As for ISKKFGDLSYSIRHSISMPAMRNS [M8L], the protein stability index was 2.27.
For the variant ISKKFGDRSYSIRHSISMPAMRNS [M8R], the protein stability index was 2.53.
For ISKKFGDYSYSIRHSISMPAMRNS [M8Y], the protein stability index is 1.54.
As to ISKKFGDHSYSIRHSISMPAMRNS [M8H], the protein stability index was 2.33.
Regarding ISKKFGDESYSIRHSISMPAMRNS [M8E], the protein stability index was 3.18.
Turning to ISKKFGDNSYSIRHSISMPAMRNS [M8N], the protein stability index was determined as 2.88.
With ISKKFGDSSYSIRHSISMPAMRNS [M8S], the protein stability index was determined as 2.4.
ISKKFGDISYSIRHSISMPAMRNS [M8I]: the protein stability index worked out at 2.13.
Then ISKKFGDPSYSIRHSISMPAMRNS [M8P], with 3.46.
As for ISKKFGDKSYSIRHSISMPAMRNS [M8K], the protein stability index is 2.48.
ISKKFGDVSYSIRHSISMPAMRNS [M8V]: the protein stability index was determined as 2.38.
On to ISKKFGDQSYSIRHSISMPAMRNS [M8Q], for which the protein stability index worked out at 2.85.
Then ISKKFGDGSYSIRHSISMPAMRNS [M8G], with 2.31; and ISKKFGDWSYSIRHSISMPAMRNS [M8W], with 2.42.
Consider ISKKFGDDSYSIRHSISMPAMRNS [M8D], for which the protein stability index was found to be 2.78.
